One test has as its target T1, α-synuclein (Homo sapiens, UniProt P37840).
T1 construct: purchased rPeptide
Nature of the test: α-synuclein fibrillation ThT assay. The test is classed as biochemical. Particulars: for change of ThT fluorescence of α-synuclein: concentration increased to 46 μM. How it is done: The effect of the five αB crystallin peptides, ST, DR, HG, LT, and ER on as synuclein fibrillation was measured using the ThT fluorescence assay (FIG. 28). The formation and inhibition of α-synuclein fibrils was qualitatively verified by fluorescence and bright-field microscopy. The concentration of the peptides was varied relative to α-synuclein to establish a concentration curve. In addition, the effect of a control neuropeptide (AT1) with no α-synuclein fibril inhibition activity was measured and compared to the effect of the αB crystallin peptides on α-synuclein fibrillation. The ThT fluorescence of 46 μM α-synuclein alone incubated at 37° C. for 96 hrs, increased from ˜9,500 to ˜16,000 RFU. Addition of 9.2 μM αB crystallin peptides ST, DR, HG, LT, and ER decreased the ThT fluorescence of α-synuclein by 32-100%. When the concentration of the αB crystallin peptides was increased to 46 μM, the ThT fluorescence of α-synuclein decreased with the αB crystallin peptides, DR, HG, LT, and ER, while the ThT fluorescence increased with the ST peptide. […] The negative control peptide AT1 had no effect on α-synuclein fibrillation even at a concentration as high as 460 μM. All five αB crystallin peptides inhibited α-synuclein fibrillation at sub-stoichometric and stoichometric concentrations (9.2 μM and 46 μM).
The Thioflavin T (ThT) fluorescence of 46 μM α-synuclein in the presence of varying concentrations of αB crystallin peptides and controls was measured. […] When the concentration of the peptides was increased to […] (1:1::peptide:α-synuclein), the αB crystallin peptides DR, HG, LT and ER decreased the ThT fluorescence by 51-100%, while the ST peptide had no effect on ThT fluorescence. When the concentration of the peptides was increased further to […] (10:1::peptide:α-synuclein), the five αB crystallin peptides decreased the ThT fluorescence by 40-100%. […] The formation and inhibition of β2-microglobulin fibrils was verified microscopically.
α-synuclein fibrillation ThT assays were performed as described previously. Zhu et al., J Biol Chem 279:26846-57, 2004; Dedmon et al., J Biol Chem 280:14733-40, 2005. Peptides were dissolved to 2 mM in 0.25% DMSO and diluted accordingly, while α-synuclein was dissolved in 20 mM Tris-Cl, 100 mM NaCl, pH 7.4. For the 5:1::peptide: α-synuclein assay, 5 μL of 700 μM peptide or APS was mixed with 5 μL of 140 μM α-synuclein, 17 μt of 20 mM Tris-Cl, 100 mM NaCl, pH 7.4 and 3 μL of 1 mM ThT. For the 1:1::peptide:α-synuclein assay, 5 μL of 140 μM peptide was mixed with 5 μL of 140 μM α-synuclein, 17 μl of 20 mM Tris-Cl, 100 mM NaCl, pH 7.4 and 3 μL of 1 mM ThT. For the 1:5::peptide:α-synuclein assay, 5 μL of 28 μM peptide was mixed with 5 μL of 140 μM α-synuclein, and […] of 20 mM Tris-Cl, 100 mM NaCl, pH 7.4 and 3/L of 1 mM ThT. ThT fluorescence was measured using a Perkin Elmer Victor^3 V plate reader. Assays were performed in 384-well fluorescence plates in duplicates or triplicates. Samples were incubated at 37° C. for a total of 96 hours. ThT fluorescence was measured at 0, 24, 48, and 96 hours. The effect of the peptides and APS was calculated as percentage fibril formation relative to α-synuclein alone (100%) at the end of 96 hours.

In the next test the target is T2, β2-microglobulin (β2m) (Homo sapiens, UniProt P61769).
T2 construct: purchased MP Biomedical
T2 sequence (P61769 21-119): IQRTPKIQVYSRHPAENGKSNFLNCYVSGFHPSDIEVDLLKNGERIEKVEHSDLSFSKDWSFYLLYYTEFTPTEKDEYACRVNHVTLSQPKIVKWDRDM
Nature of the test: β2-microglobulin fibrillation ThT assay. The test is classed as biochemical. The settings on record: five αB crystallin peptides and control. As for the experimental part:
Addition of 5.8 μM αB crystallin peptides, ST, DR, LT, HG, and ER decreased the ThT fluorescence of β2m by 40-64%. When the concentration of the αB crystallin peptides was increased to 29 μM and 145 μM, no further decrease in ThT fluorescence was observed. The negative control peptide AT1 had no effect on β2m fibrillation even at a concentration as high as 290 μM. All five αB crystallin peptides inhibited β2m fibrillation at sub-stoichometric and stoichometric concentrations (5.8 μM and 29 μM).
The Thioflavin T (ThT) fluorescence of β2m in the presence of varying concentrations of αB crystallin peptides and controls was measured. […] When the concentration of the peptides was increased to 29 μM (1:1::peptide:β2m), the αB crystallin peptides decreased the ThT fluorescence by 35-65%. When the concentration of the peptides was increased further to 145 μM ([…]), the αB crystallin peptides decreased the ThT fluorescence by 13-27%. […] The formation and inhibition of β2-microglobulin fibrils was verified microscopically.
β2-microglobulin fibrillation ThT assays were performed as described previously. Raman et al., Biochem J 392:573-81, 2005; Ivanova et al., Proc Natl Acad Sci USA 101:10584-9, 2004. Peptides were dissolved to 2 mM in 0.25% DMSO and diluted accordingly, while β2-microglobulin was dissolved in 25 mM sodium acetate, 25 mM sodium phosphate, pH 2.4. For the 5:1::peptide:β2-microglobulin assay, 10 μL of 430 μM peptide was mixed with 10 μL of 86 μM β2-microglobulin, 7 μl of 25 mM sodium acetate, 25 mM sodium phosphate, pH 2.4 and 3 μL of 1 mM ThT. For the 1:1::peptide:β2-microglobulin assay, 10 μL of 86 μM peptide was mixed with 10 μL of 86 μM (2-microglobulin, 7 μl of 25 mM sodium acetate, 25 mM sodium phosphate, pH 2.4 and 3 μL of 1 mM ThT. For the 1:5::peptide:β2-microglobulin assay, 10 μL of 17.2 μM peptide was mixed with 10 μL of 86 μM β2-microglobulin, 7 μl of 25 mM sodium acetate, 25 mM sodium phosphate, pH 2.4 and 3 μL of 1 mM ThT. ThT fluorescence was measured using a Perkin Elmer Victor^3 V plate reader. Assays were performed in 384-well fluorescence plates in duplicates or triplicates. Samples were incubated at 37° C. ThT fluorescence was measured continuously for 180 minutes. The effect of the peptides and APS was calculated as percentage fibril formation relative to β2-microglobulin alone (100%) at the end of 180 minutes.

With DRFSVNLDVKHFS, in the test with α-synuclein, the “effect on α-synuclein fibril formation, overall” value was “most effective inhibitor” and the “change of ThT fluorescence of α-synuclein” value (“change” below) is recorded as “decreased”.
As to ERTIPITRE, in the test with α-synuclein, the “change” value was “decreased”.
As to HGKHEERQDE, in the test with α-synuclein, the “effect on α-synuclein fibril formation, overall” value was “most effective inhibitor” and the “change” value is recorded as “decreased”. For the same sequence, the “effect on β2-microglobulin fibril formation, overall” value in the test with β2-microglobulin (β2m) is recorded as “most effective inhibitors”.
As for LTITSSLSSDGV, the “change” value with α-synuclein is on record as “decreased”. Besides, the “effect on β2-microglobulin fibril formation, overall” value with β2-microglobulin (β2m) is recorded as “most effective inhibitors”.
In the case of STSLSPFYLRPPSFLRAP, the “decrease in ThT fluorescence of α-synuclein” value with α-synuclein (16 μM (1:1::peptide:α-synuclein) as printed) is recorded as “no effect”. In addition, the “change” value with α-synuclein was “increased”.

The values above are taken from patent US20070185028A1, “Compositions and methods for treatment of protein misfolding and protein aggregation diseases” (priority 2004, published 2007).
